From publication PMC7492729, “CsrA-Mediated Translational Activation of ymdA Expression in Escherichia coli”
Substitutions are numbered along the chain they refer to.

Assays:
Details in all cases: protein: recombinant; tags: His6 (C-terminal, as named CsrA-H6); chain copies: 2; label: 5'-32P
[1] = target: T1, CsrA-H6 (Escherichia coli, UniProt P69913 1-61); experiment: EMSA; 10 mM MgCl2, 40 ng yeast tRNA; 10 mM Tris-HCl pH 7.5, 10 mM MgCl2, 100 mM KCl, 40 ng yeast tRNA per 10 ul, 7.5% glycerol, 0.1 mg/ml xylene cyanol, 0.1 nM RNA (2 nM RNA plus 1 ug acetylated BSA for footprint), 37 C 30 min
[2] = target: T1, CsrA-H6; experiment: RNase T1 footprinting; 10 mM MgCl2; BS1 and BS2 protected, BS* and SD GGA not; 10 mM Tris-HCl pH 7.5, 10 mM MgCl2, 100 mM KCl, 40 ng yeast tRNA per 10 ul, 7.5% glycerol, 0.1 mg/ml xylene cyanol, 0.1 nM RNA (2 nM RNA plus 1 ug acetylated BSA for footprint), 37 C 30 min
[3] = target: T1, CsrA-H6; experiment: RNase T1 footprinting; 10 mM MgCl2; binds BS1 in absence of BS2; 10 mM Tris-HCl pH 7.5, 10 mM MgCl2, 100 mM KCl, 40 ng yeast tRNA per 10 ul, 7.5% glycerol, 0.1 mg/ml xylene cyanol, 0.1 nM RNA (2 nM RNA plus 1 ug acetylated BSA for footprint), 37 C 30 min

T1 sequence (P69913 whole entry): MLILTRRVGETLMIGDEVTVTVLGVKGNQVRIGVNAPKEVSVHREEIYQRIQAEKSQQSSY

B1: ymdA leader RNA (EMSA) (structured_RNA)
RNA: AAGAUGAAUCUGGAGAGAAUGGUCUGCUGCGAAUCAGCCAACCUGAAAGUAUGGAUAACACAACCCUCAAGGAUGACUAAUCAUUGAGGAAAUAGAAUAAA
Question: With B1 as the binder, how does the Kd [1] read?
Answer: The Kd was 48 ± 3 nM.

B2: ymdA leader RNA (footprint) (structured_RNA)
RNA: GUCUUAAUUUGUUGAAAUAUCGAGCAUAAGAUGAAUCUGGAGAGAAUGGUCUGCUGCGAAUCAGCCAACCUGAAAGUAUGGAUAACACAACCCUCAAGGAUGACUAAUCAUUGAGGAAAUAGAAUAAA
Question: Does B2 bind [2]?
Answer: Result: binds

B3: ymdA leader RNA BS2 mutant (footprint) (structured_RNA)
RNA: B2 RNA with G98A
Question: Does B3 bind [3]?
Answer: Result: binds
